The text below walks through data of the Immune Epitope Database (IEDB).

Usually IC50 stands for the concentration at which inhibition is half-maximal. A low value points to greater potency in that assay. What is called Kd is the free concentration of one partner at which half of the binding sites on the other are occupied at equilibrium, for simple one-to-one binding.

Assay [1] addresses HLA-A*02:01. In words: IEDB peptide-MHC binding, purified MHC/competitive/fluorescence; ≥ and ≤ were set here for values at or beyond the usual limits of such assays.
For assay [2], the target named is HLA-A*68:01. In words: IEDB peptide-MHC binding, purified MHC/competitive/radioactivity; filed as Kd, often an IC50 or EC50 that approximates it; ≥ and ≤ were set here for values at or beyond the usual limits of such assays. To be noted: source organism: SARS coronavirus Tor2.
The target of assay [3] is HLA-A*31:01. The description is as above. Conditions: source organism: SARS coronavirus Tor2.
Assay [4] deals with HLA-A*33:01. The assay is described as above. Conditions: source organism: SARS coronavirus Tor2.
Assay [5] addresses HLA-A*01:01. In words: IEDB peptide-MHC binding, purified MHC/direct/fluorescence; filed as Kd, often an IC50 or EC50 that approximates it; ≥ and ≤ were set here for values at or beyond the usual limits of such assays.
Assay [6] concerns the target HLA-A*03:01. The assay is described as above.
Assay [7] concerns the target HLA-B*07:02. Described as above.
Assay [8] has as its target HLA-A*69:01. The assay is described as above.
The target of assay [9] is HLA-A*02:01. The assay is described as above.
The target of assay [10] is HLA-B*15:01. The description is as above.
The target of assay [11] is HLA-B*07:02. In words: IEDB peptide-MHC binding, purified MHC/competitive/radioactivity; filed as Kd, often an IC50 or EC50 that approximates it; ≥ and ≤ were set here for values at or beyond the usual limits of such assays.
In assay [12] the target is HLA-B*51:01. The description is as above.
Assay [13] deals with HLA-B*35:01. Described as above.
For assay [14], the target named is HLA-B*27:05. In words: IEDB peptide-MHC binding, purified MHC/direct/fluorescence; filed as Kd, often an IC50 or EC50 that approximates it; ≥ and ≤ were set here for values at or beyond the usual limits of such assays.
In assay [15] the target is HLA-B*58:01. Described as above.
In assay [16] the target is HLA-B*53:01. In words: IEDB peptide-MHC binding, purified MHC/competitive/radioactivity; filed as Kd, often an IC50 or EC50 that approximates it; ≥ and ≤ were set here for values at or beyond the usual limits of such assays.
Assay [17] has as its target HLA-B*40:01. In words: IEDB peptide-MHC binding, purified MHC/direct/fluorescence; filed as Kd, often an IC50 or EC50 that approximates it; ≥ and ≤ were set here for values at or beyond the usual limits of such assays.
In assay [18] the target is HLA-A*11:01. The description is as above.
[19] abbreviates: source organism: Zaire ebolavirus.
[20] abbreviates: source organism: Vibrio cholerae.
The mark [21] stands for this setting: source organism: Dengue virus 4 Philippines/H241/1956.
Setting [22] is: source organism: Dengue virus 4 Dominica/814669/1981.
The mark [23] stands for this setting: source organism: Bacillus cereus.
Setting [24] is: source organism: Yersinia pestis.
The mark [25] stands for this setting: source organism: Dengue virus 2 Jamaica/1409/1983.
[26] abbreviates: source organism: Dengue virus 1 Brazil/97-11/1997.
[27] abbreviates: source organism: Dengue virus 3 Martinique/1243/1999.
Setting [28] is: source organism: West Nile virus.
[29] abbreviates: source organism: dengue virus type 4.
Where [30] appears, read: source organism: Rickettsia sibirica.
[31] abbreviates: source organism: Francisella tularensis subsp. holarctica LVS.

On to LGVATAHGS, for which the IC50 in assay [1] (setting [19]) is at least 277 µM.
Regarding SSSLTSLLK, the Kd is 9.33 µM in assay [2], 4.76 µM in assay [3], at least 41.5 µM in [4] and 1.11 µM in assay [5] (source organism: SARS-CoV1).
For QLQCHQIAI, the Kd in [6] (setting [20]) stood at 13.2 µM; in [7] (setting [20]), 6.71 µM; in assay [8] (setting [20]) it was 5.31 µM; in assay [9] (setting [20]), 0.092 µM; in [10] (setting [20]), 7.26 µM.
Take NPTTLIASL: the Kd in assay [11] (setting [21]) is 0.21 µM.
As for LPLPWTAGAD, the results for the dissociation constant (Kd) in assay [12] (setting [22]) and in assay [13] (setting [22]) were at least 69.6 µM and 8.06 µM, respectively.
DLNKVIQFL came in with a Kd in assay [8] (source organism: Haemophilus influenzae) of 0.352 µM.
Regarding ALSTGAGAY, the equilibrium dissociation constant (Kd) in assay [10] (source organism: Mycobacterium tuberculosis F11) is 0.436 µM.
QLNETIYTS returned a half-maximal inhibitory concentration (IC50) in [1] (setting [19]) of 2.8 µM.
Turning to QLANETTQA, the IC50 in assay [1] (source organism: Sudan ebolavirus) turned out to be 25.9 µM.
Turning to RRLKAEAQM, the equilibrium dissociation constant (Kd) in assay [14] (source organism: Mammarenavirus lassaense) was found to be 0.053 µM.
Take AFIHIPGDT: in assay [1] (source organism: Variola virus), the 50% inhibitory concentration (IC50) was 24.8 µM. That is a double-digit micromolar value.
VVYRGTTTY: the Kd is 8.79 µM in assay [2]; 9.74 µM in assay [3]; at least 77.7 µM in assay [4]; 0.281 µM in [15] (source organism: SARS-CoV1); 0.11 µM in assay [10] (source organism: SARS-CoV1).
For GIYCTVPFI, the equilibrium dissociation constant (Kd) turned out to be 0.388 µM in [8] (setting [23]) and 0.111 µM in assay [9] (setting [23]).
Regarding WQNLAWAGV, the Kd is 7 µM in [8] (setting [24]) and 0.0536 µM in [9] (setting [24]).
Regarding FPQSNAPIMD, the dissociation constant Kd in assay [16] (setting [25]) amounted to 0.113 µM; in [12] (setting [25]), 4.16 µM.
As to SVTRLENLMW, the Kd in assay [16] (setting [25]) came out at 0.437 µM.
With GTTFAEGVV, in [1] (setting [19]), the IC50 stood at 31.1 µM.
For the sequence VSWKPWSSK, in assay [6] (source organism: Cryptosporidium parvum), the dissociation constant Kd came out at 0.0507 µM.
As to REAKATRPL, the Kd in assay [17] (source organism: Mycobacterium tuberculosis) came out at 0.0808 µM.
For the sequence VAFLILPQA, in assay [1] (setting [19]), the IC50 was found to be 0.52 µM. This counts as sub-micromolar.
VQQESSFVM: the equilibrium dissociation constant (Kd) in assay [14] (source organism: SARS-CoV1) is 4.77 µM; in assay [18] (source organism: SARS-CoV1), at least 20.7 µM; in assay [17] (source organism: SARS-CoV1), 7.46 µM; in [9] (source organism: SARS-CoV1), 1.07 µM; in assay [10] (source organism: SARS-CoV1), 0.0674 µM.
With SPGYVLGVFL, the Kd in assay [11] (setting [22]) stood at 0.238 µM.
Take NPWMEDKTH: in assay [13] (setting [26]), the dissociation constant (Kd) stood at 2.3 µM.
On to GMNAPDDLV, for which, in assay [1] (setting [19]), the half-maximal inhibitory concentration (IC50) was 6.3 µM.
In turn, GLRAIKSVL displayed a dissociation constant Kd in assay [9] (source organism: Homo sapiens) of 5.66 µM.
In the case of TPVTTWENV, in [12] (setting [27]), the dissociation constant Kd was determined as 12.9 µM.
Take MAICSAVPT: the Kd in [13] (setting [21]) came to 0.543 µM.
As for FPQSNSPIED, the equilibrium dissociation constant (Kd) in assay [16] (setting [21]) was 1.83 µM; in [12] (setting [21]), at least 37.5 µM; in assay [13] (setting [21]), 0.63 µM.
As to YQTDSGCWY, the Kd was determined as 6.06 µM in [5] (setting [28]) and 1.34 µM in assay [10] (setting [28]).
As for TPEGIIPTL, the results for the Kd in assay [7] (setting [29]) and in [8] (setting [29]) were 9.24 µM and 2.72 µM, respectively.
In the case of RAADEPPLV, in [1] (source organism: Vaccinia virus), the IC50 worked out at 2.83 µM.
For the sequence LPIRYQTTA, the Kd in assay [12] (setting [27]) turned out to be 15.9 µM.
Consider KLYFWIPWS, for which the figures for the Kd in assay [8] (setting [30]) and in [9] (setting [30]) were at least 20 µM and 0.197 µM, respectively.
For the sequence KLYGLSQGY, the Kd in [6] (setting [31]) worked out at 0.0047 µM; in [18] (setting [31]), 0.21 µM.
In the case of TPRAKRGTA, the dissociation constant Kd in assay [11] (setting [26]) came to 0.227 µM.
LEEEGVTPL gave a Kd in assay [17] (source organism: Corynebacterium diphtheriae) of 0.0434 µM.
In assay [9] (source organism: Burkholderia pseudomallei), TMGPHPAGV gave a Kd of 0.0007 µM.
Turning to CSSISIKLT, in [1] (source organism: Vaccinia virus Copenhagen), the half-inhibitory concentration (IC50) is at least 729 µM.
In turn, VSFSMVGLF registered a Kd in assay [15] (source organism: Mammarenavirus juninense) of 0.119 µM.
On to IPKIYGGPIS, for which, in [11] (source organism: Dengue virus 1 Singapore/S275/1990), the Kd is 0.508 µM.
